Measurements from patent US20110300138A1 (published 2011).
Where two headings read alike, the source gives them in different places.

Experiments:
Assay in all cases: cell-based or functional assay
[1] = target: wild type TSHR expressed in CHO cells (human) (UniProt P16473)
[2] = target: TSHR with Phe130 mutated to Ala, expressed in CHO cells (human) (UniProt P16473)
[3] = target: TSHR with Tyr82 mutated to Ala expressed in CHO cells (human) (UniProt P16473)
[4] = target: wild type TSHR expressed in CHO cells (human) (UniProt P16473); remark: listed apart in the source
[5] = target: TSHR with Lys183 mutated to Asp expressed in CHO cells (human) (UniProt P16473)
[6] = target: wild type TSHR (human TSH receptor) expressed in CHO cells (human) (UniProt P16473)
[7] = target: TSHR with Glu61 mutated to Ala, expressed in CHO cells (human) (UniProt P16473)
[8] = target: TSHR with Ile60 mutated to Ala, expressed in CHO cells (human) (UniProt P16473)
[9] = target: TSHR with Glu107 mutated to Ala expressed in CHO cells (human) (UniProt P16473)
[10] = target: TSHR with Glu178 mutated to Ala expressed in CHO cells (human) (UniProt P16473)
[11] = target: TSHR with Ser281 mutated to Ala, expressed in CHO cells (human) (UniProt P16473)
[12] = target: wild type TSHR expressed in CHO cells (human) (UniProt P16473); remark: listed apart in the source
[13] = target: TSHR with Phe134 mutated to Ala, expressed in CHO cells (human) (UniProt P16473)

% inhibition of TSH stimulation; 5B3 10 µg/mL [1]: 2% | % inhibition of TSH stimulation; 5B3 100 µg/mL [1]: 0% | Cyclic AMP produced; 5B3 10 µg/mL + TSH 3 ng/mL [1]: 78.2 pmol/mL | Cyclic AMP produced; 5B3 100 µg/mL + TSH 3 ng/mL [1]: 86.9 pmol/mL | % inhibition of TSH stimulation; 5B3 10 µg/mL [2]: 8% | % inhibition of TSH stimulation; 5B3 100 µg/mL [2]: 6% | Cyclic AMP produced; 5B3 10 µg/mL + TSH 3 ng/mL [2]: 111 pmol/mL | Cyclic AMP produced; 5B3 100 µg/mL + TSH 3 ng/mL [2]: 114 pmol/mL | Mutated/wild type (%) of cyclic AMP produced; 5B3 10 µg/mL + TSH 3 ng/mL [2]: 142% | Mutated/wild type (%) of cyclic AMP produced; 5B3 100 µg/mL + TSH 3 ng/mL [2]: 131% | % inhibition of TSH stimulation; 5B3 10 µg/mL; Experiment 1 [3]: 16% | % inhibition of TSH stimulation; 5B3 10 µg/mL; Experiment 2 [3]: 4% | % inhibition of TSH stimulation; 5B3 100 µg/mL; Experiment 1 [3]: 16% | % inhibition of TSH stimulation; 5B3 100 µg/mL; Experiment 2 [3]: 8% | Cyclic AMP produced; 5B3 10 µg/mL + TSH 3 ng/mL; Experiment 1 [3]: 139 pmol/mL | Cyclic AMP produced; 5B3 10 µg/mL + TSH 3 ng/mL; Experiment 2 [3]: 71.9 pmol/mL | Cyclic AMP produced; 5B3 100 µg/mL + TSH 3 ng/mL; Experiment 1 [3]: 139 pmol/mL | Cyclic AMP produced; 5B3 100 µg/mL + TSH 3 ng/mL; Experiment 2 [3]: 68.5 pmol/mL | Mutated/wild type (%) of cyclic AMP produced; 5B3 10 µg/mL + TSH 3 ng/mL; Experiment 1 [3]: 85% | Mutated/wild type (%) of cyclic AMP produced; 5B3 10 µg/mL + TSH 3 ng/mL; Experiment 2 [3]: 96% | Mutated/wild type (%) of cyclic AMP produced; 5B3 100 µg/mL + TSH 3 ng/mL; Experiment 1 [3]: 95% | Mutated/wild type (%) of cyclic AMP produced; 5B3 100 µg/mL + TSH 3 ng/mL; Experiment 2 [3]: 99% | % inhibition of TSH stimulation; 5B3 10 µg/mL [4]: 0% | % inhibition of TSH stimulation; 5B3 10 µg/mL; Exp 1 [4]: 0% | % inhibition of TSH stimulation; 5B3 10 µg/mL; Exp 2 [4]: 0% | % inhibition of TSH stimulation; 5B3 10 µg/mL; Experiment 1 [4]: 0% | % inhibition of TSH stimulation; 5B3 10 µg/mL; Experiment 2 [4]: 0% | % inhibition of TSH stimulation; 5B3 100 µg/mL [4]: 0% | % inhibition of TSH stimulation; 5B3 100 µg/mL; Exp 1 [4]: 0% | % inhibition of TSH stimulation; 5B3 100 µg/mL; Exp 2 [4]: 0% | % inhibition of TSH stimulation; 5B3 100 µg/mL; Experiment 1 [4]: 5% | % inhibition of TSH stimulation; 5B3 100 µg/mL; Experiment 2 [4]: 0% | Cyclic AMP produced; 5B3 10 µg/mL + TSH 3 ng/mL [4]: 85.3 pmol/mL | Cyclic AMP produced; 5B3 10 µg/mL + TSH 3 ng/mL; Exp 1 [4]: 65.7 pmol/mL | Cyclic AMP produced; 5B3 10 µg/mL + TSH 3 ng/mL; Exp 2 [4]: 100 pmol/mL | Cyclic AMP produced; 5B3 10 µg/mL + TSH 3 ng/mL; Experiment 1 [4]: 163 pmol/mL | Cyclic AMP produced; 5B3 10 µg/mL + TSH 3 ng/mL; Experiment 2 [4]: 73.7 pmol/mL | Cyclic AMP produced; 5B3 100 µg/mL + TSH 3 ng/mL [4]: 81.6 pmol/mL | Cyclic AMP produced; 5B3 100 µg/mL + TSH 3 ng/mL; Exp 1 [4]: 65.5 pmol/mL | Cyclic AMP produced; 5B3 100 µg/mL + TSH 3 ng/mL; Exp 2 [4]: 98.1 pmol/mL | Cyclic AMP produced; 5B3 100 µg/mL + TSH 3 ng/mL; Experiment 1 [4]: 146 pmol/mL | Cyclic AMP produced; 5B3 100 µg/mL + TSH 3 ng/mL; Experiment 2 [4]: 68.9 pmol/mL | % inhibition of TSH stimulation; 5B3 10 µg/mL ([4]; record 2): 0% | % inhibition of TSH stimulation; 5B3 10 µg/mL; Experiment 1 ([4]; record 2): 4% | % inhibition of TSH stimulation; 5B3 10 µg/mL; Experiment 2 ([4]; record 2): 0% | % inhibition of TSH stimulation; 5B3 100 µg/mL ([4]; record 2): 0% | % inhibition of TSH stimulation; 5B3 100 µg/mL; Experiment 1 ([4]; record 2): 0% | % inhibition of TSH stimulation; 5B3 100 µg/mL; Experiment 2 ([4]; record 2): 0% | Cyclic AMP produced; 5B3 10 µg/mL + TSH 3 ng/mL ([4]; record 2): 93.7 pmol/mL | Cyclic AMP produced; 5B3 100 µg/mL + TSH 3 ng/mL ([4]; record 2): 109 pmol/mL | % inhibition of TSH stimulation; 5B3 10 µg/mL [5]: 11% | % inhibition of TSH stimulation; 5B3 100 µg/mL [5]: 0% | Cyclic AMP produced; 5B3 10 µg/mL + TSH 3 ng/mL [5]: 105 pmol/mL | Cyclic AMP produced; 5B3 100 µg/mL + TSH 3 ng/mL [5]: 128 pmol/mL | Mutated/wild type (%) of cyclic AMP produced; 5B3 10 µg/mL + TSH 3 ng/mL [5]: 112% | Mutated/wild type (%) of cyclic AMP produced; 5B3 100 µg/mL + TSH 3 ng/mL [5]: 117% | % inhibition of TSH stimulation; 5B3 10 µg/mL [6]: 1% | % inhibition of TSH stimulation; 5B3 10 µg/mL; Experiment 1 [6]: 0% | % inhibition of TSH stimulation; 5B3 10 µg/mL; Experiment 2 [6]: 0% | % inhibition of TSH stimulation; 5B3 100 µg/mL [6]: 0% | % inhibition of TSH stimulation; 5B3 100 µg/mL; Experiment 1 [6]: 2% | % inhibition of TSH stimulation; 5B3 100 µg/mL; Experiment 2 [6]: 0% | % inhibition of TSH stimulation; 5B3 10 µg/mL [7]: 0% | % inhibition of TSH stimulation; 5B3 100 µg/mL [7]: 9% | Mutated/wild type (%) of cyclic AMP produced; 5B3 10 µg/mL + TSH 3 ng/mL [7]: 68% | Mutated/wild type (%) of cyclic AMP produced; 5B3 100 µg/mL + TSH 3 ng/mL [7]: 55% | % inhibition of TSH stimulation; 5B3 10 µg/mL; Experiment 1 [8]: 0% | % inhibition of TSH stimulation; 5B3 10 µg/mL; Experiment 2 [8]: 17% | % inhibition of TSH stimulation; 5B3 100 µg/mL; Experiment 1 [8]: 14% | % inhibition of TSH stimulation; 5B3 100 µg/mL; Experiment 2 [8]: 0% | Mutated/wild type (%) of cyclic AMP produced; 5B3 10 µg/mL + TSH 3 ng/mL; Experiment 1 [8]: 58% | Mutated/wild type (%) of cyclic AMP produced; 5B3 10 µg/mL + TSH 3 ng/mL; Experiment 2 [8]: 53% | Mutated/wild type (%) of cyclic AMP produced; 5B3 100 µg/mL + TSH 3 ng/mL; Experiment 1 [8]: 50% | Mutated/wild type (%) of cyclic AMP produced; 5B3 100 µg/mL + TSH 3 ng/mL; Experiment 2 [8]: 62% | % inhibition of TSH stimulation; 5B3 10 µg/mL [9]: 15% | % inhibition of TSH stimulation; 5B3 100 µg/mL [9]: 17% | Cyclic AMP produced; 5B3 10 µg/mL + TSH 3 ng/mL [9]: 70.9 pmol/mL | Cyclic AMP produced; 5B3 100 µg/mL + TSH 3 ng/mL [9]: 66.8 pmol/mL | Mutated/wild type (%) of cyclic AMP produced; 5B3 10 µg/mL + TSH 3 ng/mL [9]: 83% | Mutated/wild type (%) of cyclic AMP produced; 5B3 100 µg/mL + TSH 3 ng/mL [9]: 82% | % inhibition of TSH stimulation; 5B3 10 µg/mL; Exp 1 [10]: 0% | % inhibition of TSH stimulation; 5B3 10 µg/mL; Exp 2 [10]: 0% | % inhibition of TSH stimulation; 5B3 100 µg/mL; Exp 1 [10]: 0% | % inhibition of TSH stimulation; 5B3 100 µg/mL; Exp 2 [10]: 3% | Cyclic AMP produced; 5B3 10 µg/mL + TSH 3 ng/mL; Exp 1 [10]: 57.6 pmol/mL | Cyclic AMP produced; 5B3 10 µg/mL + TSH 3 ng/mL; Exp 2 [10]: 55 pmol/mL | Cyclic AMP produced; 5B3 100 µg/mL + TSH 3 ng/mL; Exp 1 [10]: 57 pmol/mL | Cyclic AMP produced; 5B3 100 µg/mL + TSH 3 ng/mL; Exp 2 [10]: 45 pmol/mL | Mutated/wild type (%) of cyclic AMP produced; 5B3 10 µg/mL + TSH 3 ng/mL; Exp 1 [10]: 88% | Mutated/wild type (%) of cyclic AMP produced; 5B3 10 µg/mL + TSH 3 ng/mL; Exp 2 [10]: 55% | Mutated/wild type (%) of cyclic AMP produced; 5B3 100 µg/mL + TSH 3 ng/mL; Exp 1 [10]: 87% | Mutated/wild type (%) of cyclic AMP produced; 5B3 100 µg/mL + TSH 3 ng/mL; Exp 2 [10]: 46% | % inhibition of TSH stimulation; 5B3 10 µg/mL; Experiment 1 [11]: 19% | % inhibition of TSH stimulation; 5B3 10 µg/mL; Experiment 2 [11]: 4% | % inhibition of TSH stimulation; 5B3 100 µg/mL; Experiment 1 [11]: 11% | % inhibition of TSH stimulation; 5B3 100 µg/mL; Experiment 2 [11]: 0% | Mutated/wild type (%) of cyclic AMP produced; test sample 5B3 10 µg/mL + TSH (3 ng/mL); Experiment 1 [11]: 67% | Mutated/wild type (%) of cyclic AMP produced; test sample 5B3 10 µg/mL + TSH (3 ng/mL); Experiment 2 [11]: 80% | Mutated/wild type (%) of cyclic AMP produced; test sample 5B3 100 µg/mL + TSH (3 ng/mL); Experiment 1 [11]: 71% | Mutated/wild type (%) of cyclic AMP produced; test sample 5B3 100 µg/mL + TSH (3 ng/mL); Experiment 2 [11]: 87% | % inhibition of TSH stimulation; 5B3 10 µg/mL [12]: 0% | Cyclic AMP produced; 5B3 10 µg/mL + TSH 3 ng/mL [12]: 131 pmol/mL | Cyclic AMP produced; 5B3 100 µg/mL + TSH 3 ng/mL [12]: 112 pmol/mL | % inhibition of TSH stimulation; 5B3 10 µg/mL [13]: 9% | % inhibition of TSH stimulation; 5B3 100 µg/mL [13]: 0% | Cyclic AMP produced; 5B3 10 µg/mL + TSH 3 ng/mL [13]: 101 pmol/mL | Cyclic AMP produced; 5B3 100 µg/mL + TSH 3 ng/mL [13]: 116 pmol/mL | Mutated/wild type (%) of cyclic AMP produced; 5B3 10 µg/mL + TSH 3 ng/mL [13]: 77% | Mutated/wild type (%) of cyclic AMP produced; 5B3 100 µg/mL + TSH 3 ng/mL [13]: 103%
Substance: 5B3 (human monoclonal antibody to GAD, negative control for K1-70)
